Measurements taken from publication PMC11914125.

What was measured:
[1] = target: DNA polymerase beta (full-length) (Homo sapiens) (UniProt P06746); experiment: EMSA; conditions: EMSA: 20 nM NCP, 20 mM HEPES pH 7.5, 100 mM NaCl, 1 mM EDTA, 1 mM DTT, 0.1 mg/ml BSA, 20 min, 4 °C, 5% native PAGE, 0.2x TBE
[2] = target: Pol beta lyase domain (8 kDa) (rat) (UniProt P06766); experiment: EMSA; conditions: EMSA: 20 nM NCP, 20 mM HEPES pH 7.5, 100 mM NaCl, 1 mM EDTA, 1 mM DTT, 0.1 mg/ml BSA, 20 min, 4 °C, 5% native PAGE, 0.2x TBE

Sequence	Kd ([1]; 5'-phosphate on strand 3)	also measured
ATCGGATGTATATATCTGACACGTGCCTGGAGACTAGGGAGTAATCCCCTTGGCGGTTAAAACGCGGGGGACAGCGCGTACGTGCGTTTAAGCGGTGCTAGAGCTGTCTACGACCAATTGAGCGGCCTCGGCACCGGGATTCTCGAT (double strand) [ND-NCP]	–	Kd [1]: 217 nM; Kd [2]: 451 nM
ATCGGATGTATATATCTGACACGTGCCTGGAGACTAGGGAGTAATCCCCTTGGCGGTTAAAACGCGGGGGACAGCGCGTACGTGCGTTTAAGCGGTGCTAGAGCTGTCTACGACCAATTGAGCGGCCTCGGCACCGGGATTCTCGAT / ATCGAGAATCCCGGTGCCGAGGCCGCTCAATTGGTCGTAGACAGCTCTAGCACCGCTTAAACGCACGTACGCGCTGTCCCCCGCGT / TTAACCGCCAAGGGGATTACTCCCTAGTCTCCAGGCACGTGTCAGATATATCCATCCGAT [Gap-NCP-1.5]	149 nM	–
ATCGGATGTATATATCTGACACGTGCCTGGAGACTAGGGAGTAATCCCCTTGGCGGTTAAAACGCGGGGGACAGCGCGTACGTGCGTTTAAGCGGTGCTAGAGCTGTCTACGACCAATTGAGCGGCCTCGGCACCGGGATTCTCGAT / ATCGAGAATCCCGGTGCCGAGGCCGCTCAATTGGTCGTAGACAGCTCTAGCACCGCTTAAACGCACGTACGCGCTGTCCCCCGCGTTTTAACCGC / AAGGGGATTACTCCCTAGTCTCCAGGCACGTGTCAGATATATCCATCCGAT [Gap-NCP-2.5]	118 nM	–
ATCGGATGTATATATCTGACACGTGCCTGGAGACTAGGGAGTAATCCCCTTGGCGGTTAAAACGCGGGGGACAGCGCGTACGTGCGTTTAAGCGGTGCTAGAGCTGTCTACGACCAATTGAGCGGCCTCGGCACCGGGATTCTCGAT / ATCGAGAATCCCGGTGCCGAGGCCGCTCAATTGGTCGTAGACAGCTCTAGCACCGCTTAAACGCACGTACGCGCTGTCCCCCGCGTTTTAACCGCCAAGGGGATTA / TCCCTAGTCTCCAGGCACGTGTCAGATATATCCATCCGAT [Gap-NCP-3.5]	141 nM	–
ATCGGATGTATATATCTGACACGTGCCTGGAGACTAGGGAGTAATCCCCTTGGCGGTTAAAACGCGGGGGACAGCGCGTACGTGCGTTTAAGCGGTGCTAGAGCTGTCTACGACCAATTGAGCGGCCTCGGCACCGGGATTCTCGAT / ATCGAGAATCCCGGTGCCGAGGCCGCTCAATTGGTCGTAGACAGCTCTAGCACCGCTTAAACGCACGTACGCGCTGTCCCCCGCGTTTTAACCGCCAAGGGGATTACTCCCTA / TCTCCAGGCACGTGTCAGATATATCCATCCGAT [Gap-NCP-4.5+4]	94 nM	–
ATCGGATGTATATATCTGACACGTGCCTGGAGACTAGGGAGTAATCCCCTTGGCGGTTAAAACGCGGGGGACAGCGCGTACGTGCGTTTAAGCGGTGCTAGAGCTGTCTACGACCAATTGAGCGGCCTCGGCACCGGGATTCTCGAT / ATCGAGAATCCCGGTGCCGAGGCCGCTCAATTGGTCGTAGACAGCTCTAGCACCGCTTAAACGCACGTACGCGCTGTCCCCCGCGTTTTAACCGCCAAGGGGATTACTCCCTAG / CTCCAGGCACGTGTCAGATATATCCATCCGAT [Gap-NCP-4.5+3]	115 nM	–
ATCGGATGTATATATCTGACACGTGCCTGGAGACTAGGGAGTAATCCCCTTGGCGGTTAAAACGCGGGGGACAGCGCGTACGTGCGTTTAAGCGGTGCTAGAGCTGTCTACGACCAATTGAGCGGCCTCGGCACCGGGATTCTCGAT / ATCGAGAATCCCGGTGCCGAGGCCGCTCAATTGGTCGTAGACAGCTCTAGCACCGCTTAAACGCACGTACGCGCTGTCCCCCGCGTTTTAACCGCCAAGGGGATTACTCCCTAGT / TCCAGGCACGTGTCAGATATATCCATCCGAT [Gap-NCP-4.5+2]	137 nM	–
ATCGGATGTATATATCTGACACGTGCCTGGAGACTAGGGAGTAATCCCCTTGGCGGTTAAAACGCGGGGGACAGCGCGTACGTGCGTTTAAGCGGTGCTAGAGCTGTCTACGACCAATTGAGCGGCCTCGGCACCGGGATTCTCGAT / ATCGAGAATCCCGGTGCCGAGGCCGCTCAATTGGTCGTAGACAGCTCTAGCACCGCTTAAACGCACGTACGCGCTGTCCCCCGCGTTTTAACCGCCAAGGGGATTACTCCCTAGTCT / CAGGCACGTGTCAGATATATACATCCGAT [Gap-NCP-4.5]	98 nM	Kd ([2]; 5'-phosphate on strand 3): 125 nM
ATCGGATGTATATATCTGACACGTGCCTGGAGACTAGGGAGTAATCCCCTTGGCGGTTAAAACGCGGGGGACAGCGCGTACGTGCGTTTAAGCGGTGCTAGAGCTGTCTACGACCAATTGAGCGGCCTCGGCACCGGGATTCTCGAT / ATCGAGAATCCCGGTGCCGAGGCCGCTCAATTGGTCGTAGACAGCTCTAGCACCGCTTAAACGCACGTACGCGCTGTCCCCCGCGTTTTAACCGCCAAGGGGATTACTCCCTAGTCTCCAGGCACGT / TCAGATATATCCATCCGAT [Gap-NCP-5.5]	51 nM	–
